Data taken from the DeepSol protein solubility set.

Assay: soluble on expression in E. coli; label from the status in PepcDB or PDB records

MSLTPTFKDKIARAPKAELHIHIEGSLEPELIFALAQRNGVKLAYDSIDALRAAYAFTDLQSFLDIYYAGASVLLTEQDFYDMTAAYCERALADNVVHTELFFDPQTHTERGVSIETVVAGIERALADAEQRGLSSKLILCFLRHLSEEDALATFESALPLFERYRHRLIGVGLDSSELGHPPTKFARVFEKARALGLKLVAHAGEEGPPAYIYEALDVLKVDRIDHGVRSIEDEALVERLAKTRTALTVCPLSNLKLCVFDDMAKHTLKALLDRGVAVTINSDDPAYFGGYVNENYFATAEGLQLTDAEVHAVIRNGFEASFIEPAQRDALYARLDAYWQAAEGHHHHHH
soluble on expression in E. coli: soluble

MNEFSILCRVLGSLFYRQPQDPLLVPLFTLIREGKLAANWPLEQDDMLARLQKSCDITQISTDYNALFVGEECAVAPYRSAWVEGAEESEVRAFLTSRGMPLADTPADHIGTLLLAASWLEDQSAEDESEALETLFADYLLPWCNTFLGKVEAHAVTPFWRTLAPLTRDAIGAMWDELQEEDEE
soluble on expression in E. coli: not soluble

MGSDKIHHHHHHMSQAFLASENEQIKDYYEENGYVVVKNAVSLEKITDFINKYENFKISKNYYFRSQDTNRAEKLAINEKGFIERSILNPLELVYQKDFCRSSSNIICADSVSQILRTLTGKQKHTIWQTMFFDKSTGTVAHQDHYYLDSDPPGNLIACWYALEDIQEDAGAFFVVPKSHKGSVIPRKTDVPLFSDHEEYAKNIQKLINEQSYPIQPMLLEKGSVLFWHPYLIHGAFQNTNPKYSRKSFTAHFLPEGYSRLGISRVKPTVISTNPNILSWKKNLLHHAEASIRHWRYWLQVNLRPKSQRPYLEMRSSEYLDIK
soluble on expression in E. coli: not soluble

MHEYELNQDLLAENKRLAEKNREALRESGTVAVNIMGAIGSGKTLLIERTIERIGNEVKIGAMLGDVVSKADYERVRRFGIKAEAISTGKECHLDAHMIYHRLKKFSDCDLLLIENVGNLICPVDFDLGENYRVVMVSVTEGDDVVEKHPEIFRVADLIVINKVALAEAVGADVEKMKADAKLINPRAKIIEMDLKTGKGFEEWIDFLRGILNVHSDSGQN
soluble on expression in E. coli: not soluble

MNVACPALLIAGPASGQGKTTLTAALARHHVRQGRRVRVFKVGPDFLDPMLLQAASGQPVYQLDLWLVGEDQCRSLLFEAARSADLILIEGVMGLFDGTPSAADLAQTFGVPVLAVIDASGMAETFGAVAHGLATHRPGLPFAGVVANRVASPGHADRLRASLPGAIPFRGAFFRQPDAGFPDRHLGLVQAPELGDLDRRLDTLADAVAGTGLADLPDSVPFAPESAAVPPRLLEGVRIGIARDAAFSFLYPANLDLLRAMGATPVFFSPLGDRSLPEVDSVYLPGGYPELHLDTLAGNGGMKESLREHVAAGKPLLAECGGLLYLLEELADQNGRTSAMCGILPGRAKMQTRLAGLGLQSAAFRSGTLRAHTFHYSRLETPLSPLLMAERRRGGSAGEAVYRQGRLTASYLHWYLPSCPEAAAELLRPLEHHHHHH
soluble on expression in E. coli: soluble

MEVIREQEFVNQYHYDARNLEWEEENGTPKTNFEVTFQLANRDEAAKVTSIVAVLQFVIVRDEFVISGVISQMAHIQGRLINEPSEFSQDEVENLAAPLLEIVKRLTYEVTEIALDRPGVTLEFNS
soluble on expression in E. coli: soluble

MSLTASVAAAPDPASLAPELAHIAPALKAEILAQALPYIRKFHGKTIVIKYGGNAMTEEKLKHGFARDVILLKLVGMNPVVVHGGGPQIDDALKKVGKTGTFIQGMRVTDEETMEVVEWVLGGEVQQDIVMLINQYGGQAVGLTGKDGGLIRAKKLQMPDREKPGQFIDIGFVGDIETINPAVVRALQDDAFIPVISPIGFSDDGQAYNINADVVAGKMAEILKAEKLVMMTNIPGVLDKQGNLLTDLSAREIDELFADGTISGGMLPKISSALDAAKSGVHSVHIIDGRIEHSLLLEILTEQAFGTMIRSHEGHHHHHH
soluble on expression in E. coli: soluble

MPEKKPVTAENSVGIDLGIEKFAILSDGIAVENPRFIKRVEKRIKKLQKQISRKKKGSKNYEKQKIRIQKKYRKLRNLRDDFHDKVSTAIAKRYDTIFIEDLNVRGMQRNHHLARSITDVSFYSFKEKLKWKADRYGKNLIEIGRFDPSSKLCSRCGNIKKDLKLSDRVYSCDACGLTIDRDYNASLDIRKIGLVKVGLVPPEFTPVEIATSGLDGIYPYRQMSVGESGRSEASAEELEHHHHHH
soluble on expression in E. coli: not soluble

MGSDKIHHHHHHMGKVADTLKPGDRVLLSFEDESEFLVDLEKDKKLHTHLGIIDLNEVFEKGPGEIIRTSAGKKGYILIPSLIDEIMNMKRRTQIVYPKDSSFIAMMLDVKEGDRIIDTGVGSGAMCAVLARAVGSSGKVFAYEKREEFAKLAESNLTKWGLIERVTIKVRDISEGFDEKDVDALFLDVPDPWNYIDKCWEALKGGGRFATVCPTTNQVQETLKKLQELPFIRIEVWESLFRPYKPVPERLRPVDRMVAHTAYMIFATKVCRREETE
soluble on expression in E. coli: not soluble

MNIRDYIRENEARFLEDLFALIRIPSVSAKSEHKPDMQRCAEHWRDHLLQVGAQKAEVFQTPGNPVVYAERIMDPKAKTILVYAHYDVMPPEPLELWKSEPFEPVIRDGHIWARGADDDKGQGMIQVKGFETALALGLVQCNVKFLFEGEEEIGSTNLEAFCRAHKEMLSADVIIVSDTSMVSAETPSLTTGLRGLAYWEMEVTGPNRDLHSGHFGGAVANPINELCKLIAGIVDENGRITIPHFYDDVVPLSDEERQMIAQVPFSEEKYCQALDIDTVFGEAGYSTLERNSCRPSFDVCGIWGGYTGEGAKTVLPSKAYAKVSSRLVANQDHEKISQMFIDYIRSVAPKHIKVKVTPLHGGEAYLCPIDLPAYKAAEEACTIAFGKRPLAVRRGGSIPIIATFEKVLGLKTVLMGFGLESNAIHSPNENMPLDIFRKGIESVAEFYRIYK
soluble on expression in E. coli: not soluble

MGSDKIHHHHHHMNLRRRGIVVSFHSNMVTVEDEETGERILCKLRGKFRLQNLKIYVGDRVEYTPDETGSGVIENVLHRKNLLTKPHVANVDQVILVVTVKMPETSTYIIDKFLVLAEKNELETVMVINKMDLYDEDDLRKVRELEEIYSGLYPIVKTSAKTGMGIEELKEYLKGKISTMAGLSGVGKSSLLNAINPGLKLRVSEVSEKLQRGRHTTTTAQLLKFDFGGYVVDTPGFANLEINDIEPEELKHYFKEFGDKQCFFSDCNHVDEPECGVKEAVENGEIAESRYENYVKMFYELLGRRKK
soluble on expression in E. coli: not soluble

MGSDKIHHHHHHMHTEVQEYGLSLRWVRFIFAAKEILINMVYKVFLSLCIGLALSASAALHAQKAVSGHAPIQVETPARSSGQKHVLQLVTPKLETVRIGIIGLGMRGPGAVERFSKIPGTQIVALCDVLPERVKKTQEILVKAGLPEAAAYSGSEDAWKKLCEREDIDLVYIVTDWKTHAEMGVYAMEHGKHAAIEVPAAMTLEEIWKLIDTSERTRKHCIQLENCVYDFFELTTLNMAHQGVFGEILHAEGAYIHNLEDFWPYYWNNWRLDYNRKHRGDVYATHGMGPACQLLDIHRGDRMKTIVAMDTKAVNGPAYIKNKTGEVVADFQNGDQTTSLIRTEKGKTLLIQHNVMTPRPYSRKYQAVGTDGFADKYPLEMYCLRPAQVDSDIAPDHEKLNAHGPVSEEVKKALMEKYKHPIHRELEETAKKVGGHGGMDYIMDYRLIYCLRNGLPLDMDVYDLAEWCCLAELSRISIENGSAPVAIPDFTRGNWDKVKGYRHAMAE
soluble on expression in E. coli: not soluble

MVQELLKQLQNGEAKFADVLAYIESRFEHQPTAFKNGQQQNAATENQGSAKVFSLAQIEGLNQTETLSLFAEHYAAVLNTPEGTDHQNIRQFMQHGWDGVTFEGEALQAK
soluble on expression in E. coli: not soluble

LVLEGGGMRGVFTCGVLDYLMDHDIRFPYAIGVSAGACNGLSYASRQRGRAKFSNIDLLEKYNYIGLKHLLRKRNILDFDLLFNEFPEHILPYDYDTYFASPERFVMVTTNCMTGEANYFEEKRDKSRVIDIVRASSSLPFVCPVTYVDGVPMLDGGIVDSIPLQRAIADGYTRNVVILTRNRGYRKDTKDIRIPSFVYRKYPKLREALSRRCAVYNEQLEMVEQMEDEGKIIVIRPQKPVMVDRIERDVQKLTEFYEEGYDCARNLFEF
soluble on expression in E. coli: not soluble

MDWDDEYSHNSFDLHCLLNSFPGDLEFEQIFSDIDEKIEQNAASIKHCIKEIQSEINKQCPGVQLQTTTDCFEWLTNYNYSTSESSFISHGDLIKFFKTLQDLLKNEQNQEEMTLDLLWDLSCHSSVSFPSTLSGTSFHFLSRTSLHSVEDNSSMDVKSMWDDIRLHLRRFLVSKLQSHNEINNSQQKILLKKQCLQQLLFLYPESEVIIKYQNIQNKLLANLLWNCFPSYNRDSNLDVIAHGYQSTMLKLYSVIKEDFNTLCEILAPSSMVKFIKETYLDTVTEEMAKFLENFCELQFRENAVRVVKTSKSSSKHRGAVHALG
soluble on expression in E. coli: soluble

AIAELFTLGACRQVGKSCFVLKTSEGLVMLDCGLHPSYQDDRRYPNFSLAFSYGPLKAVFITHCHADHVGALPILTERWGYDGPIYMSEPTRKLSYYILEECVGSWGGDDEWTDSSRSEWSYTQREVESCLTKVTIMEPGQSISVGENVQVHSWMAGHVLGAYMFSIVVDNHRILYTGDFTSCPTFHLPPARVDDIPYPPDVILSEATYATSFKDGRLNNQVEFIQNVLDCLLDGGKVLVPVFAIGRAQELLLLLGK
soluble on expression in E. coli: soluble

LDFGALPPEINSGRMYCGPGSGPMLAAAAAWDGVAVELGLAATGYASVIAELTGAPWVGAASLSMVAAATPYVAWLSQAAARAEQAGMQAAAAAAAYEAAFVMTVPPPVITANRVLVMTLIATNFFGQNSAAIAVAEAQYAEMWAQDAVAMYGYAAASASASRLIPFAAPPKTTNSAGVVAQVAAVAAMPGLLQRLSSAASVSWSNPNDWWLVRLLGSITPTERTTIVRLLGQSYFATGMAQFFASIAQQLTFGPGGTTAGSGGAWYPTPQFAGLGASRAVSASLARANKIGALSVPPSWVKTTALTESPVAHAVSANPTVGSSHGPHGLLRGLPLGSRITRRSGAFAHRYGFRHSVVARPPSAG
soluble on expression in E. coli: not soluble

MTAWLLSLALNLPFLGGPQEYQILVALGCSAPRHVQNGYREMLAHEVLPRLAEKVTTTQVRLTLAPITGRSYTAPARVLETPNPLSTPRFQLEEAKKTFQKEALRTFDELRKRAAAECSRGTEIIGALKAAGERARKPGRILVLAHGFEQSELMNLYDYRLKLEKREVRQGLLQRVKARLGLPNLKDQEVCIAGITAGNDNNANARLTTSIKAFWEELIQASGGRLVGYGTTPRVCPFL
soluble on expression in E. coli: soluble

MSLNINDALTSILASKKYRALCPDTVRRILTEEWGRHKSPKQTVEAARTRLHGICGAYVTPESLKAAAAALSAGDVKKALSLHASTKERLAELDTLYDFIFSAETPRRVLDIACGLNPLALYERGIASVWGCDIHQGLGDVITPFAREKDWDFTFALQDVLCAPPAEAGDLALIFKLLPLLEREQAGSAMALLQSLNTPRMAVSFPTRSLGGRGKGMEANYAAWFEGGLPAEFEIEDKKTIGTELIYLIKKNGEGHHHHHH
soluble on expression in E. coli: soluble

MGSDKIHHHHHHMSKSLIRIAPGALTIGKPLPWDVFDSEGNILLRQGYVIQTNSQLEQLFERGRFKPRKIERPKEETFEDLRQRNPFAEYGDLLTTLEVTLNAITSEDPTAQKRLLGLCRMLDKTCQEAPDASLALVHLYSISPTIHEQILFYGILCHFIARQFGLEEKRATVLTAAALTANLALVPVADQLNASNTVLTDDQRAVIRKHPARSIQALTSAGINNKLLLRIIAQHHEQADGSGYPEGLSGSDILPEAEILALAERYVAMITKRAYRNRMNITEARKLIATLADGKFRPAIPRSLLQVLGDHPPGMLVRLVNNEVGVVTRRADRTRGPFVKAIFGPRGNRYNGTFERDTSLLEYNVRAPEEPEIMPSMDFSMLWGFRS
soluble on expression in E. coli: not soluble
